Reference: publication PMC11199634 (Nature Communications, 2024)

Target: T1, SDS22 (tag-free, purified) (human, UniProt Q15435 1-360)
T1 construct: SDS22 (PPP1R7), human, wild type; also called SDS22-WT; untagged SDS22; source: HEK293T, transiently transfected; EGFP-SDS22 purified on EGFP-trap beads, tag-free after TEV protease
T1 sequence (looked up): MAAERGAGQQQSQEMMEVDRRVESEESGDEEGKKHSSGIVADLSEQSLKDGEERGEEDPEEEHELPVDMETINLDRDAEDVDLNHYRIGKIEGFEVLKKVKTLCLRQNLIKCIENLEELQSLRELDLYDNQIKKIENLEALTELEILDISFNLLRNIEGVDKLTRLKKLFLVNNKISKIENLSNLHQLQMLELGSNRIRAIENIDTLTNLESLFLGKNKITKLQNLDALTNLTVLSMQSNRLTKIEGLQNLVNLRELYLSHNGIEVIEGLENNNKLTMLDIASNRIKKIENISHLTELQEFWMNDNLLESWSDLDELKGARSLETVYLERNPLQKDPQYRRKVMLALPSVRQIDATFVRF
Experiment: ITC; 5 μM SDS22 in the cell titrated with 50 μM His-I3 (20 injections), 22 °C, MicroCal iTC200; binding curves not saturated
Conditions: both partners purified

Kd: 7.6 µM
B1: His-I3 (natural protein, human, UniProt O60927 1-126, looked up)
chain: MAEAGAGLSETVTETTVTVTTEPENRSLTIKLRKRKPEKKVEWTSDTVDNEHMGRRSSKCCCIYEKPRAFGESSTESDEEEEEGCGHTHCVRGHRKGRRRATLGPTPTTPPQPPDPSQPPPGPMQH
notes: source: E. coli BL21 (pET16b), purified (Ni2+-Sepharose)
